Results on one substance are retold here after doi:10.1101/2022.06.29.498065v2.

The subject of the data set is Nc1ncnc2c1ncn2[C@@H]1O[C@H](COP(=O)(O)OP(=O)(O)OP(=O)(O)O)[C@@H](O)[C@H]1O. In words: purified protein. The conditions noted are these: pH 7.0; 30.0 °C.

By Km is commonly meant the substrate concentration at which the rate is half of its maximum. On to “KFDV NS5 (Kyasanur Forest disease virus)”, for which the Km came out at 42.15 ± 5.81 µM.
